According to PMC3686713:

Tested on: OmpR (phosphorylated with acetyl phosphate) (Yersinia pseudotuberculosis IP31758)
Experiment: EMSA

Row | Substance | binding [nM]
1 | T6SS-4 promoter | 40
2 | ompF promoter | 20
